Patent publication US20250340623A1 (AC IMMUNE, published 2025)

Columns and labels:
[1] = target: monomeric alpha-synuclein (UniProt P37840 1-140); assay: SPR, captured mAb
Procedure: (§1) Non-covalent immobilization of alpha-synuclein antibodies was performed using a target immobilization method of 2000 response units (RU). Antibodies were diluted in 10 mM sodium acetate pH 5.5 (GE Healthcare, BR-1003-52) to a final concentration of 5 μg/mL.
(§2) Binding affinity of alpha-synuclein antibodies to monomeric or fibrillar alpha-synuclein species was performed using a single-cycle kinetics method. The instrument was primed with 1×HBS-P+ buffer (10× stock from GE Healthcare, BR-1003-52 diluted in Milli-Q water). Injections of monomeric alpha-synuclein (aSyn) (Boston Biochem, SP-485), increasing in concentration from 0.62-50 nM prepared from serial 2-fold dilutions, were performed with contact times of 300 sec/injection at a flow rate of 30 μL/min. A dissociation phase of 900 sec followed the final 50 nM injection. Regeneration of the sensor to the goat anti-mouse antibody layer was achieved using 3 regenerations of 10 mM Glycine pH 1.7. […] Regeneration of the sensor to the goat anti-mouse antibody layer was achieved using 3 regenerations of 10 mM Glycine pH 1.7. Results obtained from single-cycle kinetics were evaluated by Biacore T200 evaluation software with 1:1 binding homogenous Langmuir model (with a global Rmax) with Cycle 5 as a blank subtraction. The following kinetic parameters were obtained: on-rate (ka), off-rate (kd), affinity constant (KD, ratio of kd by ka), maximum response (Rmax), and goodness of fit (Chi2).
(§3) Non-covalent capture of the alpha-synuclein antibodies was performed in three separate runs.

[2] = target: alpha-synuclein fibrils (UniProt P37840 1-140); assay: SPR, captured mAb
Procedure: as §1, §2, §3

Binder | Kd [1] [nM] | koff [1] [s⁻¹] | kon [1] [M⁻¹ s⁻¹] | Kd [2] [nM] | koff [2] [s⁻¹] | kon [2] [M⁻¹ s⁻¹]
ACI-7079-2601B6-Ab1 (antibody, V domains shown, mouse hybridoma mAb; VH/VL only; also called 2601B6D2; ACI-7079-26016NAbM) VH: EIQLQQSGAELVRPGASVKLSCTTSGFNIKDDYIHWVKQRPEQGLEWIGWIDPENGDTDYASKFQGKATITADTSSNTAYLHLSSLTSEDAAVYFCTTRGFGYWGQGTLVTVS VL: DIVMTQSHKFMSTSVGDRVSITCKASQDVGNVVAWYQQKPGQSPKLLIYWASSRHTGVPDRFTGSGSGTEFTLTISNVQSEDLADYFCQQYSSYPLTFGAGTKLELK | 82.1 | 0.0238 | 290000 | 22 | 0.000382 | 17400
ACI-7087-4119E10-Ab2 (antibody, V domains shown, mouse hybridoma mAb; VH/VL only; also called 4119E10D12) VH: QVQLQQSGAELVRPGASVTLSCKASGYTFSDYEMNWVKQTPVHGLEWIGAIDPETGGTAYNQKFKGKAILTSDKSSSTAYMELRSLTSEDSAVYYCTRFLLIDFDYWGQGTTLTVSS VL: DVLMTQTPLSLPVSLGDQASISCRSSQSIVHSNGNTYLEWYLKKAGQSPKVLIYKVSNRFSGVPDRFSGSGSGTDFTLKISRVEAEDLGVYYCFQGSHVPYTFGGGTELEIK | 1040 | 0.0188 | 18000 | 16.2 | 0.00453 | 280000
ACI-7087-4125E6-Ab1 (antibody, V domains shown, mouse hybridoma mAb; VH/VL only; also called 4125E6D5) VH: QVQLQQPGTELVKPGASVRLSCKASGYAFTSYWMHWVKQRPGQGLEWIGNINPSNGGTNYNEKFKNKATLTVDKSSSTAYMQLSGLTSEDSAVYYCATGLHYWGQGTTLTVSS VL: DIQMTQSPSSLSASLGERVTLTCRASQDIGNYLNWLQQEPDGTIKRLIYATSSLDSGVPKRFSGSRSGSDYSLTISSLESEDFVDYYCLQFASSPLTFGPGTKLELK | 442 | 0.0261 | 59100 | 50.7 | 0.000567 | 11200
ACI-7088-4301D5-Ab2 (antibody, V domains shown, mouse hybridoma mAb; VH/VL only; also called 4301D5B10) VH: QVQLQQSGPELVRPGASVKISCKASGYRFTSYYIHWVKQRPGQGLEWIGWIYPGSDNTKHNDKFKGKATLTADTSSSTAYMQLSSLTSEDSAVYFCARDYDVGFGYWGQGTLVTVSS VL: not shown | 620 | 0.0353 | 56900 | 35.8 | 0.000385 | 10800
ACI-7088-4301E12-Ab2 (antibody, V domains shown, mouse hybridoma mAb; VH/VL only; also called 4301E12B9) VH: DVQLQESGPGLVKPSQSLSLTCSVTGYSITSGYYWNWIRQFPGNKLEWMGYISDDGSKNYNPSLKNRISITRDTSKNQLFMKLNSVTTEDTATYYCARGDSRLGQGTLVTVSA VL: not shown | 6 | 0.000118 | 19800 | 39 | 0.000166 | 4250
ACI-7089-4415G5-Ab1 (antibody, V domains shown, mouse hybridoma mAb; VH/VL only; also called 4415G5A11) VH: QVQLQQSGAELARPGASVKVSCKASGYTFTSSGISWLKHRTGQGLEWIGDIYPRSGNTYYNEKFKDKATLTADKSSSTAYMELRSLTSEDSAVYFCASGNYWGQGTTLTVSA VL: DIVITQDDLSNPVTSGESVSISCRSSKSLLYKDGKTYLNWFLQRPGQSPQLLIYLMSTRASGVSDRFSGSGSGTDFTLEISRVKAEDVGVYYCQQLLEYPLTFGAGTKLELK | 2.4 | 0.000141 | 60000 | 1.3 | 0.00031 | 242000
ACI-8033-6403E11-Ab2 (antibody, V domains shown, mouse hybridoma mAb; VH/VL only; also called 6403E11B4) VH: DVQLQESGPGLVKPSQSLSLTCSVTGYSITSAYYWNWIRQFPGNKLEWMGYISYDGSNNYIPSLKNRISISRDTSKNQFFLKLNSVTTEDTATYYCIRGDVNWGQGTTLTVSS VL: not shown | 3.9 | 0.000293 | 75200 | 44.6 | 0.000273 | 6110
ACI-7089-4418C5-Ab1 (antibody, V domains shown, mouse hybridoma mAb; VH/VL only; also called 4418C5G1) VH: DGQLQESGPGLVKPSQSLSLTCSVTGYSITSGYYWNWIRQFPGNKLEWMGYINYDGSNNYNPSLKNRISITRDTSKNQFFLKFNFVTTEDTATYYCVRGDVYWGQGTTLTVSS VL: not shown | 3.1 | 0.000141 | 45000 | 0.05 | 9.4e-06 | 207000
ACI-8033-6402E10-Ab1 (antibody, V domains shown, mouse hybridoma mAb; VH/VL only; also called 6402E10B3) VH: DVQLQESGPGLVKPVQSLSLTCSVTGYSITSGYYWNWIRQFPGNKLEWMGYISSDGSNNYNPSLKNRISISRDTSKNQFFLKLDSVTTEDTATYYCVRADNYWGQGTTLTVSS VL: not shown | 28.3 | 0.00058 | 20500 | 37.4 | 0.000152 | 4060
ACI-8033-22E5-Ab1 (antibody, V domains shown, mouse hybridoma mAb; VH/VL only; also called 917.22E5C5F7) VH: EVQLVESGGDLVKPGGSLKLSCAASGFTFSSYGMSWVRQTPDKRLEWVATISNGGSYTYYPDSVKGRFTISRDNAKNTLYLQMSSLKSEDTAMYYCARQLRRDGWYFDVWGTGTTVTVSS VL: EIVLTQSPALMAASPGEKVTITCSVSSSISSSKLHWYQQKSETSPKLWIYGTSNLASGVPVRFSGSGSGTSYSLTISSMEAEDAATYYCQQWSSYPLTFGAGTKLELK |  |  |  | 1.8 | 3.27e-05 | 18000
ACI-8033-21C8-Ab1 (antibody, V domains shown, mouse hybridoma mAb; VH/VL only; also called 917.21C8E4C8) VH: QVQLQQPGAELVKPGASVKMSCKASGYTFTSYWITWVRQRPGQGLDWIGDIYPGGGVTNYNEKFKTKATLTVDTSSSTAYMHLSSLTSEDSAVYFCATAQTTFAYWGQGTLVTVSA VL: DVLMTQTPLSLPVSLGDQASISCRSSQNIVHNNGNTYLEWYLQKPGQSPKLLIYKVSNRFSGVPDRFSGSGSGTDFTLKISRVEAEDLGVYYCFQGSHVPRTFGGGTKLEIK | 1.6 | 0.000482 | 301000 | 17.7 | 0.000156 | 8810
ACI-7079-3101E3-Ab1 (antibody, V domains shown, mouse hybridoma mAb; VH/VL only; also called 3101E3C9) VH: QVQLKESGPGLVAPSQSLSITCTVSGFSLTRYIINWVRQPPGKGLEWLGVIWTGGGTDYNSALKSRLSISKDNSKSQVFLKMNSLQTDDTARYYCAREYGYDGAWFAYWGQGTLVTVSA VL: DVLMTQTPLSLPVSLGDQASISCRSSQTIVHSNGNTYLEWYLQKPGQSPKLLIYKVSNRFSGVPDRFSGSGSGTDFTLKISRVEAEDLGVYYCFQGSHVPYTFGGGTKLEIK | 300 | 0.0569 | 190000 | 13.7 | 0.000129 | 9380
ACI-7079-3103D9-Ab1 (antibody, V domains shown, mouse hybridoma mAb; VH/VL only; also called 3103D9C9) VH: QVSLKESGPGILQPSQTLSLTCSFSGFSLSTFGMGVGWIRQPSGKGLDWLTHIWWDDDKYYNPGLKSRLTISKDTSKNQVFLEIANVDTADTATYYCARIGDYYGTRGYFDVWGTGTTVTVSS VL: DIVMTQSPSSLTMSLGQTVTMSCKSSQSLLNSSNQKNHLAWYQQRPGQSPKLLVYFASTRESGVPERFIGGGSGTDFTLTISNVQSEDLTDYFCQQHYSTPYTFGGGTKLEIK | 0.73 | 0.000437 | 598000 | 9.2 | 0.000413 | 44800
ACI-7079-3103G12-Ab2 (antibody, V domains shown, mouse hybridoma mAb; VH/VL only; also called 3103G12D2B10) VH: DVQLQESGPGMVKPSQSLSLTCTVTGYSITSGYDWHWIRHFPGNKLEWMGYITYSGSTNYNPSLKSRISITHDTSKNHFFLKLTSVTTEDTATYYCARDTVDAWFAYWGQGTLVTVSA VL: DVLMTQAPLSLPVSLGDQASISCRSSQSIVHSNGDTYLEWYLQKPGQSPKLLIYKVSNRFSGVPDRFSGSGSGTDFTLKISRVEAEDLGVYYCFQGSHVPPTFGGGTKLEIK | 2.4 | 0.0014 | 580000 | 22.5 | 0.000563 | 25000
ACI-7079-3106C5-Ab1 (antibody, V domains shown, mouse hybridoma mAb; VH/VL only; also called 3106C5B7) VH: QVTLKESGPGILQPSQTLSLTCSFSGFSLSTFGMGVGWIRQPSGKGLEWLTHIWWDDDKYYNPALKSRLTISRDPSKNQVFLKIANVDTADTATYYCARIGDYYGSRGYFDVWGTGTTVTVSS VL: not shown | 4.1 | 0.00325 | 792000 | 9.49 | 0.000237 | 25000
ACI-7079-3104F12-Ab2 (antibody, V domains shown, mouse hybridoma mAb; VH/VL only; also called 3104F12F2H7) VH: QVTLKESGPGIVQPSQTLSLTCSFSGFSLNTFGLGVGWIRQPSGKGLDWLTHIWWDDDKYYNPALKSRLTISKDTSKNQVFLKIANVDTADTATYYCARIGDFYGSRGYFDVWGTGTTVTVSS VL: not shown | 0.51 | 0.000452 | 892000 | 3.73 | 0.000268 | 71800
ACI-7079-3107E6-Ab1 (antibody, V domains shown, mouse hybridoma mAb; VH/VL only; also called 3107E6A3) VH: QVTLKESGPGILQPSQTLSLTCSFSGFSLSTFGMGVGWIRQPSGKGLEWLTHIWWDDDKYYNPALKSRLTISKDASKNQMFLKIANVDTADTATYFCARIGDYYGSRGFFDVWGTGTTVTVSS VL: not shown | 1.12 | 0.000859 | 765000 | 2.66 | 0.000146 | 55100
ACI-7079-3108C10-Ab2 (antibody, V domains shown, mouse hybridoma mAb; VH/VL only; also called 3108C10G6) VH: ELQLVESGGGLVRPGGSLKLSCATSGFTFRNYAMSWVRQTPAKRLEWVATISDGGTYTFYSDNVKGRFTISRDNVKNTLYLQMSHLKSEDTAMYYCSRAGSGHWGQGTTLTVSS VL: not shown |  |  |  | 6.77 | 6.66e-05 | 9840
